According to the supplement of paper PMC10567573:

B1: SLC22A15 (parent)
chain: IAQYALLGYFIRSWRTLAILVNLQ
B2: FAM189A2 (parent)
chain: VAAALRYLQIFATRRSCIDESQIS

Variants of: B1
Experiment: protein stability index of a GFP-peptide fusion (GPS, HEK-293T) (PSI 1-6); higher = more stable
Settings: c terminus: a fixed tail appended
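Further: lentivirally expressed fusions sorted by FACS into six bins by GFP to DsRed ratio, PSI derived from sequencing read proportions per bin multiplied by bin number.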

Variant	protein stability index
IAQYALLGYFIRSWRTLAILVNSQ [L23S]	3.76
IAQYALLGYFIRSWRTLAILVNTQ [L23T]	3.08
IAQYALLGYFIRSWRTLAILVNVQ [L23V]	4.42
IAQYALLGYFIRSWRTLAILVNWQ [L23W]	2.35
IAQYALLGYFIRSWRTLAILVNYQ [L23Y]	3.34
IAQYALLGYFIRSWRTLAILVNLA [Q24A]	4.01
IAQYALLGYFIRSWRTLAILVNLC [Q24C]	2.35
IAQYALLGYFIRSWRTLAILVNLD [Q24D]	2.49
IAQYALLGYFIRSWRTLAILVNLE [Q24E]	3.5
IAQYALLGYFIRSWRTLAILVNLF [Q24F]	2.7
IAQYALLGYFIRSWRTLAILVNLG [Q24G]	2.66
IAQYALLGYFIRSWRTLAILVNLH [Q24H]	2.79
IAQYALLGYFIRSWRTLAILVNLI [Q24I]	3.51
IAQYALLGYFIRSWRTLAILVNLK [Q24K]	3.21
IAQYALLGYFIRSWRTLAILVNLL [Q24L]	3.01
IAQYALLGYFIRSWRTLAILVNLM [Q24M]	2.6
IAQYALLGYFIRSWRTLAILVNLN [Q24N]	2.07
IAQYALLGYFIRSWRTLAILVNLP [Q24P]	3.8
IAQYALLGYFIRSWRTLAILVNLR [Q24R]	3.17
IAQYALLGYFIRSWRTLAILVNLS [Q24S]	2.34
IAQYALLGYFIRSWRTLAILVNLT [Q24T]	3.58
IAQYALLGYFIRSWRTLAILVNLV [Q24V]	2.92
IAQYALLGYFIRSWRTLAILVNLW [Q24W]	2.37
IAQYALLGYFIRSWRTLAILVNLY [Q24Y]	2.82

Variants of: B2
Experiment: as above
Settings: c terminus: a fixed tail appended

Variant	protein stability index
AAAALRYLQIFATRRSCIDESQIS [V1A]	3.21
CAAALRYLQIFATRRSCIDESQIS [V1C]	1.68
DAAALRYLQIFATRRSCIDESQIS [V1D]	1.82
EAAALRYLQIFATRRSCIDESQIS [V1E]	1.58
GAAALRYLQIFATRRSCIDESQIS [V1G]	1.67
HAAALRYLQIFATRRSCIDESQIS [V1H]	2.36
KAAALRYLQIFATRRSCIDESQIS [V1K]	1.65
MAAALRYLQIFATRRSCIDESQIS [V1M]	1.95
NAAALRYLQIFATRRSCIDESQIS [V1N]	1.89
PAAALRYLQIFATRRSCIDESQIS [V1P]	1.56
QAAALRYLQIFATRRSCIDESQIS [V1Q]	2.38
RAAALRYLQIFATRRSCIDESQIS [V1R]	2.21
SAAALRYLQIFATRRSCIDESQIS [V1S]	1.38
TAAALRYLQIFATRRSCIDESQIS [V1T]	3.71
WAAALRYLQIFATRRSCIDESQIS [V1W]	1.79
YAAALRYLQIFATRRSCIDESQIS [V1Y]	1.07
VCAALRYLQIFATRRSCIDESQIS [A2C]	2.64
VDAALRYLQIFATRRSCIDESQIS [A2D]	2.63
VEAALRYLQIFATRRSCIDESQIS [A2E]	1.89
VFAALRYLQIFATRRSCIDESQIS [A2F]	1.74
VGAALRYLQIFATRRSCIDESQIS [A2G]	2.53
VIAALRYLQIFATRRSCIDESQIS [A2I]	4.56
VKAALRYLQIFATRRSCIDESQIS [A2K]	3.28
VLAALRYLQIFATRRSCIDESQIS [A2L]	2.9

Variant	protein stability index
VMAALRYLQIFATRRSCIDESQIS [A2M]	1.99
VNAALRYLQIFATRRSCIDESQIS [A2N]	1.27
VPAALRYLQIFATRRSCIDESQIS [A2P]	2.46
VQAALRYLQIFATRRSCIDESQIS [A2Q]	2.29
VRAALRYLQIFATRRSCIDESQIS [A2R]	2
VWAALRYLQIFATRRSCIDESQIS [A2W]	3.06
VYAALRYLQIFATRRSCIDESQIS [A2Y]	2.15
VACALRYLQIFATRRSCIDESQIS [A3C]	2.42
VAEALRYLQIFATRRSCIDESQIS [A3E]	2.34
VAFALRYLQIFATRRSCIDESQIS [A3F]	1.83
VAGALRYLQIFATRRSCIDESQIS [A3G]	2.61
VAHALRYLQIFATRRSCIDESQIS [A3H]	2.27
VAIALRYLQIFATRRSCIDESQIS [A3I]	4.72
VANALRYLQIFATRRSCIDESQIS [A3N]	2.98
VAPALRYLQIFATRRSCIDESQIS [A3P]	1.52
VAQALRYLQIFATRRSCIDESQIS [A3Q]	1.8
VARALRYLQIFATRRSCIDESQIS [A3R]	1.71
VASALRYLQIFATRRSCIDESQIS [A3S]	1.97
VATALRYLQIFATRRSCIDESQIS [A3T]	4.19
VAVALRYLQIFATRRSCIDESQIS [A3V]	3.92
VAWALRYLQIFATRRSCIDESQIS [A3W]	3.75
VAYALRYLQIFATRRSCIDESQIS [A3Y]	3
VAACLRYLQIFATRRSCIDESQIS [A4C]	2.83
VAADLRYLQIFATRRSCIDESQIS [A4D]	2.19

Variant	protein stability index
VAAELRYLQIFATRRSCIDESQIS [A4E]	1.25
VAAFLRYLQIFATRRSCIDESQIS [A4F]	1.65
VAAGLRYLQIFATRRSCIDESQIS [A4G]	2.23
VAAHLRYLQIFATRRSCIDESQIS [A4H]	1.89
VAAILRYLQIFATRRSCIDESQIS [A4I]	2.64
VAALLRYLQIFATRRSCIDESQIS [A4L]	3.72
VAAMLRYLQIFATRRSCIDESQIS [A4M]	3.33
VAANLRYLQIFATRRSCIDESQIS [A4N]	2.83
VAAPLRYLQIFATRRSCIDESQIS [A4P]	3.34
VAAQLRYLQIFATRRSCIDESQIS [A4Q]	2.73
VAARLRYLQIFATRRSCIDESQIS [A4R]	2.09
VAASLRYLQIFATRRSCIDESQIS [A4S]	1.88
VAATLRYLQIFATRRSCIDESQIS [A4T]	1.88
VAAWLRYLQIFATRRSCIDESQIS [A4W]	2.27
VAAYLRYLQIFATRRSCIDESQIS [A4Y]	2.02
VAAAARYLQIFATRRSCIDESQIS [L5A]	3.88
VAAACRYLQIFATRRSCIDESQIS [L5C]	1.18
VAAADRYLQIFATRRSCIDESQIS [L5D]	2.36
VAAAERYLQIFATRRSCIDESQIS [L5E]	1.87
VAAAFRYLQIFATRRSCIDESQIS [L5F]	2.43
VAAAGRYLQIFATRRSCIDESQIS [L5G]	2.91
VAAAHRYLQIFATRRSCIDESQIS [L5H]	3.09
VAAAIRYLQIFATRRSCIDESQIS [L5I]	3.7
VAAAKRYLQIFATRRSCIDESQIS [L5K]	1.48

Variant	protein stability index
VAAAMRYLQIFATRRSCIDESQIS [L5M]	1.46
VAAANRYLQIFATRRSCIDESQIS [L5N]	1.92
VAAAPRYLQIFATRRSCIDESQIS [L5P]	2.08
VAAAQRYLQIFATRRSCIDESQIS [L5Q]	2.12
VAAARRYLQIFATRRSCIDESQIS [L5R]	2.94
VAAASRYLQIFATRRSCIDESQIS [L5S]	1.41
VAAATRYLQIFATRRSCIDESQIS [L5T]	1.66
VAAAVRYLQIFATRRSCIDESQIS [L5V]	4.11
VAAAWRYLQIFATRRSCIDESQIS [L5W]	3.03
VAAAYRYLQIFATRRSCIDESQIS [L5Y]	3.26
VAAALCYLQIFATRRSCIDESQIS [R6C]	3.52
VAAALDYLQIFATRRSCIDESQIS [R6D]	1.69
VAAALEYLQIFATRRSCIDESQIS [R6E]	2.75
VAAALGYLQIFATRRSCIDESQIS [R6G]	1.81
VAAALHYLQIFATRRSCIDESQIS [R6H]	2.98
VAAALIYLQIFATRRSCIDESQIS [R6I]	4.08
VAAALKYLQIFATRRSCIDESQIS [R6K]	1.68
VAAALLYLQIFATRRSCIDESQIS [R6L]	3.52
VAAALMYLQIFATRRSCIDESQIS [R6M]	4.04
VAAALNYLQIFATRRSCIDESQIS [R6N]	1.23
VAAALPYLQIFATRRSCIDESQIS [R6P]	2.76
VAAALQYLQIFATRRSCIDESQIS [R6Q]	2.54
VAAALSYLQIFATRRSCIDESQIS [R6S]	1.89
VAAALTYLQIFATRRSCIDESQIS [R6T]	2.41

Variant	protein stability index
VAAALVYLQIFATRRSCIDESQIS [R6V]	2.96
VAAALYYLQIFATRRSCIDESQIS [R6Y]	2.79
VAAALRALQIFATRRSCIDESQIS [Y7A]	1.95
VAAALRCLQIFATRRSCIDESQIS [Y7C]	2.06
VAAALRDLQIFATRRSCIDESQIS [Y7D]	1.76
VAAALRELQIFATRRSCIDESQIS [Y7E]	2.41
VAAALRFLQIFATRRSCIDESQIS [Y7F]	3.33
VAAALRGLQIFATRRSCIDESQIS [Y7G]	2.02
VAAALRHLQIFATRRSCIDESQIS [Y7H]	2.25
VAAALRILQIFATRRSCIDESQIS [Y7I]	1.99
VAAALRKLQIFATRRSCIDESQIS [Y7K]	1.63
VAAALRLLQIFATRRSCIDESQIS [Y7L]	2.68
VAAALRMLQIFATRRSCIDESQIS [Y7M]	2.22
VAAALRNLQIFATRRSCIDESQIS [Y7N]	1.98
VAAALRPLQIFATRRSCIDESQIS [Y7P]	2.04
VAAALRQLQIFATRRSCIDESQIS [Y7Q]	2.64
VAAALRRLQIFATRRSCIDESQIS [Y7R]	1.85
VAAALRSLQIFATRRSCIDESQIS [Y7S]	2.92
VAAALRTLQIFATRRSCIDESQIS [Y7T]	2.49
VAAALRVLQIFATRRSCIDESQIS [Y7V]	2.4
VAAALRYAQIFATRRSCIDESQIS [L8A]	2.36
VAAALRYCQIFATRRSCIDESQIS [L8C]	2.81
VAAALRYDQIFATRRSCIDESQIS [L8D]	2.44
VAAALRYEQIFATRRSCIDESQIS [L8E]	2.04

Variant	protein stability index
VAAALRYFQIFATRRSCIDESQIS [L8F]	2.23
VAAALRYGQIFATRRSCIDESQIS [L8G]	1.34
VAAALRYHQIFATRRSCIDESQIS [L8H]	2.08
VAAALRYIQIFATRRSCIDESQIS [L8I]	1.98
VAAALRYKQIFATRRSCIDESQIS [L8K]	1.89
VAAALRYNQIFATRRSCIDESQIS [L8N]	2.14
VAAALRYPQIFATRRSCIDESQIS [L8P]	1.68
VAAALRYQQIFATRRSCIDESQIS [L8Q]	1.6
VAAALRYRQIFATRRSCIDESQIS [L8R]	1.84
VAAALRYSQIFATRRSCIDESQIS [L8S]	1.9
VAAALRYTQIFATRRSCIDESQIS [L8T]	2.02
VAAALRYVQIFATRRSCIDESQIS [L8V]	2.6
VAAALRYYQIFATRRSCIDESQIS [L8Y]	3.39
VAAALRYLAIFATRRSCIDESQIS [Q9A]	2.72
VAAALRYLCIFATRRSCIDESQIS [Q9C]	3.59
VAAALRYLDIFATRRSCIDESQIS [Q9D]	2.94
VAAALRYLEIFATRRSCIDESQIS [Q9E]	3.07
VAAALRYLIIFATRRSCIDESQIS [Q9I]	3.15
VAAALRYLKIFATRRSCIDESQIS [Q9K]	1.7
VAAALRYLLIFATRRSCIDESQIS [Q9L]	2.47
VAAALRYLMIFATRRSCIDESQIS [Q9M]	5.39
VAAALRYLNIFATRRSCIDESQIS [Q9N]	1.81
VAAALRYLPIFATRRSCIDESQIS [Q9P]	2.14
VAAALRYLRIFATRRSCIDESQIS [Q9R]	2.24

Variant	protein stability index
VAAALRYLTIFATRRSCIDESQIS [Q9T]	3.26
VAAALRYLVIFATRRSCIDESQIS [Q9V]	2.85
VAAALRYLWIFATRRSCIDESQIS [Q9W]	2.67
VAAALRYLQAFATRRSCIDESQIS [I10A]	1.73
VAAALRYLQCFATRRSCIDESQIS [I10C]	1.72
VAAALRYLQDFATRRSCIDESQIS [I10D]	2.24
VAAALRYLQEFATRRSCIDESQIS [I10E]	2.08
VAAALRYLQFFATRRSCIDESQIS [I10F]	1.73
VAAALRYLQGFATRRSCIDESQIS [I10G]	1.87
VAAALRYLQHFATRRSCIDESQIS [I10H]	1.7
VAAALRYLQKFATRRSCIDESQIS [I10K]	2.73
VAAALRYLQMFATRRSCIDESQIS [I10M]	2.68
VAAALRYLQNFATRRSCIDESQIS [I10N]	2.51
VAAALRYLQPFATRRSCIDESQIS [I10P]	2.77
VAAALRYLQQFATRRSCIDESQIS [I10Q]	2.37
VAAALRYLQRFATRRSCIDESQIS [I10R]	2.55
VAAALRYLQSFATRRSCIDESQIS [I10S]	2.19
VAAALRYLQTFATRRSCIDESQIS [I10T]	1.59
VAAALRYLQVFATRRSCIDESQIS [I10V]	1.69
VAAALRYLQWFATRRSCIDESQIS [I10W]	2.48
